Here are results for two proteins from PMC8978092 (Cell, 2022).

Series [1] concerns the molecule itself. The series is described as follows: crystal structure.
Series [2] concerns the molecule itself. The series is described as follows: cryo-EM structure.

B1: Enterococcus pore-forming toxin 4 (Epx4), residues 32-335, C-terminal His6 (natural protein)
chain: SEDNIIGTTTQEIDEHGNVKTIITVKNQQIESYTSTDSGTAKNRSTLTVNANFLNDKYSNELTTILSLNGFIPSGRKFIFPKNNTLKGEMLWPQRYSTAVYNIPLDKSVKITNSTPDNTIRSKEVSNSITYGIGGGIKMEGKQPGANLDANAAITKTISYQQPDYETAKTTSTVTGVNWNTNFTETRDGYTRNSWNPVYGNQMFMYGRYTSNIRNNFTPDYQLSSLITSGFSPSYGLVLRAPKDVKKSRIKVVFARRSETYQQNWDGLNWWGRNFYDTKNPDSLSKVTLTFELDWQNHRVTFIELEHHHHHH
For the protein B1, the “stoichiometry N” value in series [1] stood at 8.

B2: Enterococcus pore-forming toxin 1 (Epx1), residues 24-345, C-terminal His6 (natural protein)
chain: DVQVFADNPVLGTEVTFEKDENGRIVKIISKNQYRITIYNSVDAGDTPNDASVSLDVDFIDDKNSGEMGAVASINTFIPSGLRYVEGYKYKGVTNPIYKNLSAGMLWPKKYRVEVVNIPIDQATKIITATPNNNIKEKQVSDTISYGFGGSVSADGKKPGGSIEANLAYTKTTTYDQPDYETSQIKKTTKEAVWDTSFVETRDGYTPNSWNPVYGNQMFMRGRYSNVSPIDNIKKGGEVSSLISGGFSPKMGVVLASPNGTKKSQFVVRVSRMSDMYIMRWSGTEWGGENEINQNVPKEYNALMYEDVKFEIDWEQRTVRTILEHHHHHH
On to B2, for which the “stoichiometry N” value in series [2] was 8.

What is called stoichiometry N is a count of units in the complex or per binding partner.
